Our source for the protein stability index values is the supplement of paper PMC10724198.

± gives the standard deviation of the averaged measurements.
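Also: PSI is a weighted mean of sequencing reads over stability bins, variants kept only with over 10 reads, mCherry proximal and sfGFP distal, peptide attached via GGGS linker.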

In this series the test system is Saccharomyces cerevisiae. The experiment in a line: protein stability index of tFT-peptide fusion (C-terminal peptide) (PSI (0-1 scale)); higher = more stable (slower turnover). The following applies: genetic background: wild type; temperature: 30 C. The protocol: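 Multiplexed protein stability (MPS) profiling in S. cerevisiae. Random 12-aa peptides (tFT-X12 library) are fused to the C-terminus of a sfGFP-mCherry tandem fluorescent timer, after mCherry and a GGGS linker. Cells are FACS-sorted into 8 mCherry/sfGFP bins and deep-sequenced. The protein stability index (PSI) is the read-weighted bin average, scaled from 0 (unstable) to 1 (stable). Only peptides with >10 reads are reported; cells were grown at 30 °C in SC-His with glucose.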
Take FWGGRGGVGLAV: the protein stability index came to 0.601 ± 0.1.
Next, FWRPIPQSPLPQ: 0.7203 ± 0.002; FYGFHPLALPRP: 0.725 ± 0.035.
FYKKKIRRGVNV registered a protein stability index of 0.661 ± 0.038.
With FYMCYFSCSRSL, the protein stability index amounted to 0.667 ± 0.0086.
The figure for FYVCVIQNMYML is 0.579 ± 0.043.
The figure for GAAIRVNRCGEG is 0.64136 ± 0.00011; for GAAPRWSGDRRW it is 0.71 ± 0.06; for GAASHLERGQVP it is 0.634 ± 0.089.
As to GAATKRKYTINT, the protein stability index is 0.665 ± 0.013.
The figure for GACFLGGRLCGR is 0.686 ± 0.024; for GACILARGVRRR it is 0.656 ± 0.014.
GACPAFPYSVGR registered a protein stability index of 0.595 ± 0.018.
The figure for GAFLGSPWAAAS is 0.731 ± 0.04; for GAFRLGSIVGVP it is 0.735 ± 0.032; for GAGAQRGCRSGG it is 0.6878 ± 0.0034.
Next, GAGGVGVTSGGK: 0.668 ± 0.056; GAGVSELCGAGW: 0.713 ± 0.11.
The figure for GAHVAVFRQRGR is 0.678 ± 0.083; for GALYAGWRGPTC it is 0.669 ± 0.031; for GAPAWMLLYSAS it is 0.723 ± 0.029.
For the sequence GAPKRLSISLSS, the protein stability index came to 0.681 ± 0.019.
The figure for GAPPPPPARGDL is 0.764 ± 0.03; for GARCHSKVTNAS it is 0.681 ± 0.036; for GARGCSATGPPG it is 0.61 ± 0.02.
The figure for GARGWTVWVAGL is 0.632 ± 0.049; for GARPRSGVRGGT it is 0.723 ± 0.022; for GAVGGGSAADPE it is 0.667 ± 0.11.
Next, GAVGLARVSASN: 0.653 ± 0.028; GAVLELCRADGG: 0.651 ± 0.0082; GAVTWGGAGVGV: 0.694 ± 0.022.
For GAWCSTGENDTA, the protein stability index amounted to 0.677 ± 0.059.
Next, GCAVLGCLVLSA: 0.655 ± 0.088; GCEVRTFMNSSG: 0.697 ± 0.016; GCGDIFAEQLLL: 0.7227 ± 0.0041.
The figure for GCGGRTAAWGGG is 0.655 ± 0.024.
Next, GCGRLWAGIGRR: 0.678 ± 0.023.
In turn, GCGSGGLGGWRW had a protein stability index of 0.746 ± 0.18.
Consider GCGVWRVLRVLR, for which the protein stability index is 0.642 ± 0.027.
As to GCPGGGRPGPRA, the protein stability index was 0.7052 ± 0.0064.
The figure for GCRGRCVMPVCG is 0.634 ± 0.051.
Next, GCRLFGLMFFDA: 0.682 ± 0.063; GCRPFLLKSQTF: 0.777 ± 0.11; GCRSFRNYKIGV: 0.641 ± 0.018.
GCRSYRVFSGMI showed a protein stability index of 0.727 ± 0.12.
The figure for GCVDRSSHNALC is 0.632 ± 0.037; for GCVVSIICGGRA it is 0.5639 ± 0.0013.
The sequence GCWGRVLCGGSV returned a protein stability index of 0.695 ± 0.026.
Next, GDCYLCSACEWW: 0.753 ± 0.016.
The figure for GDDCQYLVVPVR is 0.701 ± 0.052; for GDDRGTSKCCLT it is 0.702 ± 0.068.
GDIRLTGLSIVS: the protein stability index turned out to be 0.638 ± 0.031.
Next, GDSGVWGPMGLW: 0.732 ± 0.033.
Next, GDSSSCSSYVYL: 0.651 ± 0.026.
The figure for GDSVNSRALALS is 0.732 ± 0.072; for GDWIYRMDRILI it is 0.816 ± 0.035.
In the case of GDWLVVRLVPSK, the protein stability index came out at 0.728 ± 0.013.
Next, GDWSYIVGIKYY: 0.626 ± 0.0078; GEALVWGHGRLS: 0.741 ± 0.041; GEGALGLRENLQ: 0.665 ± 0.021.
The figure for GEGEAVREMRGV is 0.645 ± 0.025.
The figure for GEGLGGGRGRRW is 0.653 ± 0.026.
Consider GEGRGDKGHGWT, for which the protein stability index was found to be 0.706 ± 0.19.
The figure for GELCGHSRALHG is 0.676 ± 0.071.
The sequence GEPGQTSGREKT returned a protein stability index of 0.641 ± 0.014.
The figure for GEPGRLNSSLFA is 0.678 ± 0.051; for GERGTRAERAGA it is 0.682 ± 0.032.
Next, GERLVGGWHIWN: 0.706 ± 0.015; GESPSTIRSVYS: 0.609 ± 0.038; GESWGGVGDVRR: 0.762 ± 0.028.
Next, GETVGCARLRLS: 0.566 ± 0.023; GEVGAVVGESFV: 0.622 ± 0.071; GEVVGRCGAWVC: 0.611 ± 0.033.
GEVVRGGEWGLD returned a protein stability index of 0.686 ± 0.057.
The figure for GFAAPSRPACLP is 0.696 ± 0.017.
Next, GFACRSGSFWST: 0.848 ± 0.15; GFFRGMLEGINA: 0.726 ± 0.073; GFGEFVLSSGWG: 0.743 ± 0.018.
The sequence GFGRGRRGLEEN had a protein stability index of 0.695 ± 0.024.
The figure for GFKDRCKDEKSL is 0.713 ± 0.11.
On to GFLGCGSGCGWG, for which the protein stability index is 0.744 ± 0.057.
Next, GFMRGVREKSSR: 0.701 ± 0.0073; GFPILSGLAVVR: 0.6578 ± 0.0055; GFPPSPPPPSPL: 0.741 ± 0.085.
As to GFRGILFPVGRS, the protein stability index stood at 0.736 ± 0.03.
In turn, GFSCLALFCRVD displayed a protein stability index of 0.587 ± 0.019.
The figure for GFVCRRFRFGCI is 0.634 ± 0.037.
The figure for GFYEVLRNMFVI is 0.589 ± 0.035; for GGAAGGGRGGDG it is 0.62 ± 0.069; for GGAGLGSRSSAL it is 0.743 ± 0.008.
In turn, GGAGSVAGVWAV showed a protein stability index of 0.673 ± 0.069.
Turning to GGASGGAGEGVG, the protein stability index was found to be 0.623 ± 0.063.
Consider GGCFGGVGVGSG, for which the protein stability index was 0.7122 ± 0.0045.
Take GGCGGVGGACVV: the protein stability index was 0.738 ± 0.086.
The figure for GGCGGVGGWGVA is 0.712 ± 0.066.
The figure for GGCKSLYFEWGR is 0.734 ± 0.01; for GGCRSVGWGREG it is 0.676 ± 0.029.
The figure for GGCTVLRASIFA is 0.597 ± 0.0063.
As for GGCVGVLGGWGF, the protein stability index worked out at 0.6827 ± 0.0032.
The figure for GGEGAAWAGGVG is 0.558 ± 0.028.
Consider GGEGMTCPGGGA, for which the protein stability index was 0.693 ± 0.039.
Next, GGFARGRDGWQL: 0.712 ± 0.0013; GGFDDIYVPIFV: 0.694 ± 0.012.
As for GGFFPRISSLTV, the protein stability index was 0.707 ± 0.054.
GGFGEFTWAEAA: the protein stability index amounted to 0.768 ± 0.0087.
Next, GGFGVLGLGVVG: 0.6963 ± 0.0058.
The figure for GGFPVGLVSGFC is 0.641 ± 0.032; for GGFVVVGGVVGV it is 0.72 ± 0.013; for GGFWLGVGSRVG it is 0.711 ± 0.06.
GGGAEGGVRGGG gave a protein stability index of 0.664 ± 0.027.
Next, GGGAGGGSDRVV: 0.736 ± 0.0096; GGGAGRGGVVVR: 0.685 ± 0.023.
Next, GGGAGVTLSADG: 0.682 ± 0.059; GGGARCGWGGRM: 0.7 ± 0.011.
The figure for GGGARREGAGRG is 0.6752 ± 0.0064; for GGGCLRGFWCVW it is 0.724 ± 0.046.
